In patent US20070256687A1, “Enhanced Medical Product” (priority 2004, published 2007):

Assay: Emitted dose of volumetrically dosed API/excipient mixtures delivered by a proprietary DPI
Type: physicochemical
Excerpt: In the course of developing methods and products according to the present invention different APIs were mixed with excipients in different ratios. The objectives were to find inter alia suitable formulations and methods of filling doses, but also to optimize inhaler techniques and interaction between inhaler and dose container. Table 1 below discloses some examples of volumetrically dosed mixtures API/excipient and the resulting emitted dose when delivered by a proprietary DPI. […] The objective was to find suitable excipients and to see how different mixing ratios affected the emitted dose. The mixtures were produced under laboratory conditions in small quantities and remained quasi-stable under the run of tests. The emitted dose as percentage of total recovered dose was measured and the results were used in the development of the current invention.

[1] = excipient Mannitole, ratio API/excipient 50/50, proprietary DPI
[2] = excipient Respitose®, ratio API/excipient 20/80, proprietary DPI

Substance: insulin [Micronized insulin]
- Emitted Dose in % of recovered dose [1]: 83 % of recovered dose
- Retention in % of recovered dose [1]: 17 % of recovered dose
- Emitted Dose in % of recovered dose [2]: 93 % of recovered dose
- Retention in % of recovered dose [2]: 7 % of recovered dose
